{
  "source": "paper PMC10436556",
  "about": "“Epigenetic control of type III interferon expression by 8-oxoguanine and its reader 8-oxoguanine DNA glycosylase1”",
  "binders": {"B1": {"name": "Pr2 (dsDNA)", "DNA 1": "CTGTGTTTTCACTTTTCCTACATCAGCTGGGACTGCCCTTCTGTCAGGGATAA", "DNA 2": "TTATCCCTGACAGAAGGGCAGTCCCAGCTGATGTAGGAAAAGTGAAAACACAG", "modifications": "8-oxoG at top position 48"}},
  "molecular_target": "NF-kB1/p50-p50 (recombinant) (UniProt P19838 1-433)",
  "sequence (P19838 1-433)": "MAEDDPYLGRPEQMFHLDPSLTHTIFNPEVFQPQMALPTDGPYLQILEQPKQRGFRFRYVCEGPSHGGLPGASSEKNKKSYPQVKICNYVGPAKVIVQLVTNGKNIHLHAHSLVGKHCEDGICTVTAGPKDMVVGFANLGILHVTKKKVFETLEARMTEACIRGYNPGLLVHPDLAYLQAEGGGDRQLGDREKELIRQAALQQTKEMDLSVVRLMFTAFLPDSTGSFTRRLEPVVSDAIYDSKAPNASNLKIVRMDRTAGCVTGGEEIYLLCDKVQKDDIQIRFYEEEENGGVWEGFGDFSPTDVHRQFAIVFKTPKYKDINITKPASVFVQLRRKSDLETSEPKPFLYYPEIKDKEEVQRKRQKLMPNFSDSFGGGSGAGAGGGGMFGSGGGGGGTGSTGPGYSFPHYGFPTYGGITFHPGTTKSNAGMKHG",
  "assay": "EMSA; without OGG1, time course; WCL/NE: 10 mM Tris-HCl pH 7.5, 1 mM EDTA, 50 mM NaCl, 2 mM DTT, 5% glycerol, 0.5% NP-40, BSA, poly(I:C), RT 20 min; His-IRF3: 10 mM Tris pH 7.5, 50 mM KCl, 1 mM DTT, 1% glycerol, 5 mM MgCl2, 0.05% NP-40, poly(I:C), RT 30 min",
  "details": "protein: recombinant; chain copies: 2; label: Cy5 on 3' end of bottom strand (Methods text says 5'-Cy5); blunt",
  "data": [
    {"binder": "B1", "values": [
      {"measurement": "binding result", "result": "binds"}
    ]}
  ]
}
